Here are results for 2 substances from PMC11098961.

The target of this experiment is PME-1 (UniProt Q9Y570). Description: FLAG-PP2Ac immunoprecipitation, PME-1 blot. The settings on record: reference: wild type.

PP2Ac (from UniProt P67775) S285A: the “binding against the reference” value (sites S285) is listed as “weaker”.

Regarding PP2Ac (from UniProt P67775) S225A/T227A, under “sites S225,T227”, the “binding against the reference” value is reported as “weaker”.
